Data from PMC12646051.
Values belong to the binder of their own block, whether it stands above or below them.

Columns and labels:
[1] = target: mouse Slo1 (mSlo1) α-subunit (mouse) (UniProt Q08460)
[2] = target: β3-Gρ (full-length human BK β3a subunit with C-terminal eGFP-ρ1D4) (human); assay: pull-down + SEC; plasmid weight ratio 1:0.2:1.8 (TR2)
[3] = target: hSlo1EM-TS (modified human Slo1 BK α subunit with a C-terminal twin-strep tag) (human) (UniProt Q12791); assay: pull-down + SEC; HEK293F co-transfected with hSlo1EM-TS, β2-RF and β3-Gρ at plasmid weight ratio 1:1:1 (TR1); digitonin extract; Slo1 held on streptactin XT resin, eluted with 50 mM biotin; eluate read by dual-colour FSEC (Superose 6 Increase; eGFP and mCherry)
hSlo1EM-TS (modified human Slo1 BK α subunit with a C-terminal twin-strep tag) (human), sequence (Q12791 whole entry): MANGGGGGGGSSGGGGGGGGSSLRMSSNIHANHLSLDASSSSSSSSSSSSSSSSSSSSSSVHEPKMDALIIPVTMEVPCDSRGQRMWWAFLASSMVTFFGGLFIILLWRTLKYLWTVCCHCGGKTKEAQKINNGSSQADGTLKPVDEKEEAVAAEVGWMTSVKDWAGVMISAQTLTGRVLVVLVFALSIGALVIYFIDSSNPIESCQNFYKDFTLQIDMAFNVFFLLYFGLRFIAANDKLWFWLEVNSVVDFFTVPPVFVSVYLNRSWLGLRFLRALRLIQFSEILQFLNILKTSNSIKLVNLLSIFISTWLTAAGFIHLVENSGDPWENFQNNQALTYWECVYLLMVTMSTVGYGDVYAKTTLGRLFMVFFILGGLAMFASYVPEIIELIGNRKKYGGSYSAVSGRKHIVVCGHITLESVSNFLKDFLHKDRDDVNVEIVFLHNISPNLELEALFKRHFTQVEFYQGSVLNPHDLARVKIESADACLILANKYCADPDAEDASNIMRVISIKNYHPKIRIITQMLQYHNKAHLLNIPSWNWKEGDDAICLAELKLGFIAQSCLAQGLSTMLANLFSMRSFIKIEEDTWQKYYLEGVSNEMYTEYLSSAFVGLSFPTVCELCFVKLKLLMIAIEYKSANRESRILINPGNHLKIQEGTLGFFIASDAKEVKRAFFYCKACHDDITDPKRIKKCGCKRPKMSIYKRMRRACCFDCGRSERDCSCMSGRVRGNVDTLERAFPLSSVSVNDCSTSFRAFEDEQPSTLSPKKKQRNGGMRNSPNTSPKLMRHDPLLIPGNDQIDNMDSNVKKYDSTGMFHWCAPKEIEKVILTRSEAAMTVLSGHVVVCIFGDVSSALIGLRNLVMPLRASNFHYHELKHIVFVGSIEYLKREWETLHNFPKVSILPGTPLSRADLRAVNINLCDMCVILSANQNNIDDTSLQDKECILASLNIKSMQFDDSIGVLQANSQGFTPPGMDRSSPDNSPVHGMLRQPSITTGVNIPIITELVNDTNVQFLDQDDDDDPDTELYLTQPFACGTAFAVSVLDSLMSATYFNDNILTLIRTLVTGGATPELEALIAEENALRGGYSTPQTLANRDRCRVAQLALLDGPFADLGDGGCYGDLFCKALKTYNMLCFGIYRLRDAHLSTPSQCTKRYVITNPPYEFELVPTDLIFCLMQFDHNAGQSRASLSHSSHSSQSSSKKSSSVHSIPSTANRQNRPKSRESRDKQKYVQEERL

[4] = target: β3-Gρ (full-length human BK β3a subunit with C-terminal eGFP-ρ1D4) (human); assay: pull-down + SEC; TR1 (1:1:1); three-step affinity purification: streptactin XT (Slo1), then anti-FLAG M2 resin (β2) and anti-ρ1D4 resin (β3) one after the other, in either order; eluates, input and flow-through read by dual-colour FSEC
[5] = target: hSlo1EM-TS (modified human Slo1 BK α subunit with a C-terminal twin-strep tag) (human) (UniProt Q12791); assay: as above
[6] = target: hSlo1EM-TS (modified human Slo1 BK α subunit with a C-terminal twin-strep tag) (human) (UniProt Q12791); assay: pull-down + SEC; as a1 but plasmid weight ratio 1:0.2:1.8 (TR2)
[7] = target: hSlo1EM-TS (modified human Slo1 BK α subunit with a C-terminal twin-strep tag) (human) (UniProt Q12791); assay: pull-down + SEC; as a3 but plasmid weight ratio 1:0.2:1.8 (TR2)
human β2 (hβ2) (human) [8] = target: T1, human β2 (hβ2) (human) (UniProt Q9Y691)
T1 sequence: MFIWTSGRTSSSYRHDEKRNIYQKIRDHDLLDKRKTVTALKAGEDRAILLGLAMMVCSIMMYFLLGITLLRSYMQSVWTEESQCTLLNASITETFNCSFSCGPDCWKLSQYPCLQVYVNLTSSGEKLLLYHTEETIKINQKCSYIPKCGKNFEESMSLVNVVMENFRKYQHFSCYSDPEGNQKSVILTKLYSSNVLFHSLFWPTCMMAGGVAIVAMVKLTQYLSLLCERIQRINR

human β2 (hβ2) (human) [9] = target: T1, human β2 (hβ2) (human); remark: listed apart in the source

mouse Slo1 (mSlo1) α-subunit (mouse), sequence (Q08460 whole entry): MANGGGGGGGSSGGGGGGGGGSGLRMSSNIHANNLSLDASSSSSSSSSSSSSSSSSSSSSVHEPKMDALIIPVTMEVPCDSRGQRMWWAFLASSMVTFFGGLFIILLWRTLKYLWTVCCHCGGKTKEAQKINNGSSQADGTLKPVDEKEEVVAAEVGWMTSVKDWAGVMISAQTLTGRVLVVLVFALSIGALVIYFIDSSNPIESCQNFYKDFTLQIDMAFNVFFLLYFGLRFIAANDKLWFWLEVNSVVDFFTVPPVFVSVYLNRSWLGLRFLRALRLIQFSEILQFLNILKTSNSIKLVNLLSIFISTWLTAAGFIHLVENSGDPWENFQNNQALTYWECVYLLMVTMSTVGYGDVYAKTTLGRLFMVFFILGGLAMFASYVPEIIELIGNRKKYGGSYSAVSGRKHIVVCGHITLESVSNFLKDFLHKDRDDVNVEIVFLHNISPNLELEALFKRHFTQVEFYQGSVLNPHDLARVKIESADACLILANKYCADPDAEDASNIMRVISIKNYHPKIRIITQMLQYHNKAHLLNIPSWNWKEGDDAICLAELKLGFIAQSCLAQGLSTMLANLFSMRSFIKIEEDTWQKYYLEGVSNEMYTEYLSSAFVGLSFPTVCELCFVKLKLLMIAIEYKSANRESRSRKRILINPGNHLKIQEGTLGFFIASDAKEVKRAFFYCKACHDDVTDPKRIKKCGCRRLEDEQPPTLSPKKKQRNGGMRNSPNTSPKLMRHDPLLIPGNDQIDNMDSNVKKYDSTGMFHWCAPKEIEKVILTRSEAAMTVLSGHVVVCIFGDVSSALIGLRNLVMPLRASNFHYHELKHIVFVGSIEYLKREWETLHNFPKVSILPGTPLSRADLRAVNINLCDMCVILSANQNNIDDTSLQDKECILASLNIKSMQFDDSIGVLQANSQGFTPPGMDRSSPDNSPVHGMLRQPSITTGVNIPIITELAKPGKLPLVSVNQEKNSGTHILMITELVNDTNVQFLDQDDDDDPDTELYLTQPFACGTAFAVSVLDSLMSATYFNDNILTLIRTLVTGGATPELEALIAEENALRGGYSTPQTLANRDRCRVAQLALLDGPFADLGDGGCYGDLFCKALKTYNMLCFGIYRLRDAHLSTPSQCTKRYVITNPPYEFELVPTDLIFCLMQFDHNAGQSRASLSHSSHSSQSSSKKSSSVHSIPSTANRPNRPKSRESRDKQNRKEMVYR

time course of trypsin removal of inactivation of α+β2 currents in excised oocyte patches, described by I(t)=(1-exp(-t/τ))^4; β subunits per channel (β subunits per channel) [1]: 4
B1: human β2 (hβ2) (natural protein)
chain: MFIWTSGRTSSSYRHDEKRNIYQKIRDHDLLDKRKTVTALKAGEDRAILLGLAMMVCSIMMYFLLGITLLRSYMQSVWTEESQCTLLNASITETFNCSFSCGPDCWKLSQYPCLQVYVNLTSSGEKLLLYHTEETIKINQKCSYIPKCGKNFEESMSLVNVVMENFRKYQHFSCYSDPEGNQKSVILTKLYSSNVLFHSLFWPTCMMAGGVAIVAMVKLTQYLSLLCERIQRINR

percent of Slo1–β3 complexes that are ternary (hold β2 too) [2]: 37% | molar ratio of β2-RF to β3-Gρ affiliated with Slo1 [3]: 7.32 mol/mol | percent of Slo1–β3 complexes that are ternary (hold β2 too) [4]: 49% | stoichiometry N (β2 per 4 Slo1) [5]: 2.8 | molar ratio of β2-RF to β3-Gρ affiliated with Slo1 [6]: 1.08 mol/mol | stoichiometry N (β2 per 4 Slo1) [7]: 1.9
B2: β2-RF (full-length human BK β2 subunit with C-terminal mCherry-FLAG) (natural protein)
chain: MFIWTSGRTSSSYRHDEKRNIYQKIRDHDLLDKRKTVTALKAGEDRAILLGLAMMVCSIMMYFLLGITLLRSYMQSVWTEESQCTLLNASITETFNCSFSCGPDCWKLSQYPCLQVYVNLTSSGEKLLLYHTEETIKINQKCSYIPKCGKNFEESMSLVNVVMENFRKYQHFSCYSDPEGNQKSVILTKLYSSNVLFHSLFWPTCMMAGGVAIVAMVKLTQYLSLLCERIQRINR

time course of trypsin removal of inactivation of α+β3a currents in excised oocyte patches, described by I(t)=(1-exp(-t/τ))^4; β subunits per channel (β subunits per channel) [1]: 4 | single-channel recordings from oocytes with BK α and 1:8 β2:β3a: of 16 patches with β3a-type tail openings, those that also show β2-like recovery from inactivation without reopening (of 16 patches) (human β2 (hβ2) (human) [8]): 14 | global fit of the trypsin digestion time courses of BK currents (mSlo1 with β2:β3a injection ratios 1:4 to 1:24, β2 alone, β3a alone): random mixing model against segregated model (fold lower sum of squares) (human β2 (hβ2) (human) [9]): 2.5
B3: mouse β3a (mβ3a) (natural protein)
chain: MQPFSIPVQITLQGGRRRQGRTALPASGKINGDPLKVHPKLPSSAGEDRAMLLGVAMMASSVLMFFLLGTTVLKPFMLRSPREESNCTTVHTHIVDDGLDFSFTCEGSCQDHGRSPCLQVFVNLSHSGQKVLLHYDDEAIRTNPKCFYTPKCHGDRDDLLNSVLDIKEFFDHNNGTFPCFYSPDGPLGVVLRKSGHKVVFHCLFWPLLTLLGGALIVGLVRLTQHLSFQCEQYSTVVRA
